In the supplement of paper PMC10724198:
± gives the standard deviation of the averaged measurements.

Columns and labels:
Saccharomyces cerevisiae [1] = assay: protein stability index of tFT-peptide fusion (C-terminal peptide) (PSI (0-1 scale)); higher = more stable (slower turnover)
Description: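 MPS profiling in S. cerevisiae of the tFT-X12 degron library: putative degron peptides plus stable controls, 12 aa, fused to the C-terminus of a sfGFP-mCherry timer. Cells are FACS-sorted into 8 mCherry/sfGFP bins and deep-sequenced. PSI runs from 0 (unstable) to 1 (stable). Backgrounds are wild type, das1Δ and doa10Δ at 30 °C, and wild type, das1Δ, cdc34-1 and cdc53-1 at 37 °C; 2-3 technical replicates each.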

Saccharomyces cerevisiae [2] = assay: as above; conditions: genetic background: wild type; temperature: 30 C
[3] = genetic background: cdc34-1, temperature: 37 C
[4] = genetic background: cdc53-1, temperature: 37 C
[5] = genetic background: das1 deletion, temperature: 30 C
[6] = genetic background: das1 deletion, temperature: 37 C
[7] = genetic background: doa10 deletion, temperature: 30 C
[8] = genetic background: wild type, temperature: 30 C
[9] = genetic background: wild type, temperature: 37 C
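Also: PSI is a weighted mean of sequencing reads over stability bins, variants kept only with over 10 reads, mCherry proximal and sfGFP distal, peptide attached via GGGS linker.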

GLFLLWWLGWLV
protein stability index (Saccharomyces cerevisiae [1]; [3]): 0.63 ± 0.011 | protein stability index (Saccharomyces cerevisiae [1]; [4]): 0.645 ± 0.043 | protein stability index (Saccharomyces cerevisiae [1]; [5]): 0.468 ± 0.022 | protein stability index (Saccharomyces cerevisiae [1]; [6]): 0.651 ± 0.023 | protein stability index (Saccharomyces cerevisiae [1]; [7]): 0.333 ± 0.02 | protein stability index (Saccharomyces cerevisiae [1]; [8]): 0.376 ± 0.02 | protein stability index (Saccharomyces cerevisiae [1]; [9]): 0.5187 ± 0.0047 | protein stability index (Saccharomyces cerevisiae [2]): 0.422 ± 0.036

GLFLYCCLVSLL
protein stability index (Saccharomyces cerevisiae [1]; [3]): 0.192 ± 0.031 | protein stability index (Saccharomyces cerevisiae [1]; [4]): 0.321 ± 0.0044 | protein stability index (Saccharomyces cerevisiae [1]; [5]): 0.25 ± 0.025 | protein stability index (Saccharomyces cerevisiae [1]; [6]): 0.413 ± 0.018 | protein stability index (Saccharomyces cerevisiae [1]; [7]): 0.191 ± 0.00083 | protein stability index (Saccharomyces cerevisiae [1]; [8]): 0.193 ± 0.019 | protein stability index (Saccharomyces cerevisiae [1]; [9]): 0.33 ± 0.0091 | protein stability index (Saccharomyces cerevisiae [2]): 0.283 ± 0.011

GLLLVWAALGFV
protein stability index (Saccharomyces cerevisiae [1]; [3]): 0.343 ± 0.033 | protein stability index (Saccharomyces cerevisiae [1]; [4]): 0.4444 ± 0.0018 | protein stability index (Saccharomyces cerevisiae [1]; [5]): 0.28 ± 0.019 | protein stability index (Saccharomyces cerevisiae [1]; [6]): 0.458 ± 0.006 | protein stability index (Saccharomyces cerevisiae [1]; [7]): 0.221 ± 0.007 | protein stability index (Saccharomyces cerevisiae [1]; [8]): 0.251 ± 0.043 | protein stability index (Saccharomyces cerevisiae [1]; [9]): 0.439 ± 0.0095 | protein stability index (Saccharomyces cerevisiae [2]): 0.3431 ± 0.00066

GLVVWWLSGWLW
protein stability index (Saccharomyces cerevisiae [1]; [3]): 0.249 ± 0.034 | protein stability index (Saccharomyces cerevisiae [1]; [4]): 0.435 ± 0.05 | protein stability index (Saccharomyces cerevisiae [1]; [5]): 0.269 ± 0.023 | protein stability index (Saccharomyces cerevisiae [1]; [6]): 0.428 ± 0.0078 | protein stability index (Saccharomyces cerevisiae [1]; [7]): 0.221 ± 0.026 | protein stability index (Saccharomyces cerevisiae [1]; [8]): 0.276 ± 0.025 | protein stability index (Saccharomyces cerevisiae [1]; [9]): 0.425 ± 0.048 | protein stability index (Saccharomyces cerevisiae [2]): 0.373 ± 0.0071

GMGHLSNVCLKT
protein stability index (Saccharomyces cerevisiae [1]; [3]): 0.689 ± 0.008 | protein stability index (Saccharomyces cerevisiae [1]; [4]): 0.765 ± 0.0086 | protein stability index (Saccharomyces cerevisiae [1]; [5]): 0.639 ± 0.012 | protein stability index (Saccharomyces cerevisiae [1]; [6]): 0.726 ± 0.0093 | protein stability index (Saccharomyces cerevisiae [1]; [7]): 0.636 ± 0.026 | protein stability index (Saccharomyces cerevisiae [1]; [8]): 0.645 ± 0.019 | protein stability index (Saccharomyces cerevisiae [1]; [9]): 0.706 ± 0.027 | protein stability index (Saccharomyces cerevisiae [2]): 0.597 ± 0.17

GRLDHWNKHKYI
protein stability index (Saccharomyces cerevisiae [1]; [3]): 0.528 ± 0.031 | protein stability index (Saccharomyces cerevisiae [1]; [4]): 0.687 ± 0.032 | protein stability index (Saccharomyces cerevisiae [1]; [5]): 0.64 ± 0.0064 | protein stability index (Saccharomyces cerevisiae [1]; [6]): 0.783 ± 0.024 | protein stability index (Saccharomyces cerevisiae [1]; [7]): 0.104 ± 0.013 | protein stability index (Saccharomyces cerevisiae [1]; [8]): 0.0786 ± 0.026 | protein stability index (Saccharomyces cerevisiae [1]; [9]): 0.14 ± 0.032 | protein stability index (Saccharomyces cerevisiae [2]): 0.184 ± 0.0029

GRWVLALCLVCG
protein stability index (Saccharomyces cerevisiae [1]; [3]): 0.165 ± 0.0068 | protein stability index (Saccharomyces cerevisiae [1]; [4]): 0.199 ± 0.0044 | protein stability index (Saccharomyces cerevisiae [1]; [5]): 0.202 ± 0.026 | protein stability index (Saccharomyces cerevisiae [1]; [6]): 0.312 ± 0.0066 | protein stability index (Saccharomyces cerevisiae [1]; [7]): 0.164 ± 0.0086 | protein stability index (Saccharomyces cerevisiae [1]; [8]): 0.194 ± 0.026 | protein stability index (Saccharomyces cerevisiae [1]; [9]): 0.273 ± 0.0044 | protein stability index (Saccharomyces cerevisiae [2]): 0.289 ± 0.0051

GSLLNLSLRWLV
protein stability index (Saccharomyces cerevisiae [1]; [3]): 0.626 ± 0.012 | protein stability index (Saccharomyces cerevisiae [1]; [4]): 0.7289 ± 0.0067 | protein stability index (Saccharomyces cerevisiae [1]; [5]): 0.6638 ± 0.0066 | protein stability index (Saccharomyces cerevisiae [1]; [6]): 0.739 ± 0.0077 | protein stability index (Saccharomyces cerevisiae [1]; [7]): 0.13932 ± 9.1e-05 | protein stability index (Saccharomyces cerevisiae [1]; [8]): 0.138 ± 0.022 | protein stability index (Saccharomyces cerevisiae [1]; [9]): 0.226 ± 0.0075 | protein stability index (Saccharomyces cerevisiae [2]): 0.242 ± 0.0062

GTMGWYSISRRL
protein stability index (Saccharomyces cerevisiae [1]; [3]): 0.692 ± 0.052 | protein stability index (Saccharomyces cerevisiae [1]; [4]): 0.754 ± 0.025 | protein stability index (Saccharomyces cerevisiae [1]; [5]): 0.681 ± 0.013 | protein stability index (Saccharomyces cerevisiae [1]; [6]): 0.746 ± 0.012 | protein stability index (Saccharomyces cerevisiae [1]; [7]): 0.6585 ± 0.004 | protein stability index (Saccharomyces cerevisiae [1]; [8]): 0.646 ± 0.022 | protein stability index (Saccharomyces cerevisiae [1]; [9]): 0.729 ± 0.0091 | protein stability index (Saccharomyces cerevisiae [2]): 0.519 ± 0.078

GVCRFFCLVFCS
protein stability index (Saccharomyces cerevisiae [1]; [3]): 0.544 ± 0.02 | protein stability index (Saccharomyces cerevisiae [1]; [4]): 0.5349 ± 0.0021 | protein stability index (Saccharomyces cerevisiae [1]; [5]): 0.507 ± 0.049 | protein stability index (Saccharomyces cerevisiae [1]; [6]): 0.515 ± 0.018 | protein stability index (Saccharomyces cerevisiae [1]; [7]): 0.494 ± 0.013 | protein stability index (Saccharomyces cerevisiae [1]; [8]): 0.441 ± 0.018 | protein stability index (Saccharomyces cerevisiae [1]; [9]): 0.4723 ± 0.003 | protein stability index (Saccharomyces cerevisiae [2]): 0.466 ± 0.036

GVCSFFVCVFFV
protein stability index (Saccharomyces cerevisiae [1]; [3]): 0.195 ± 0.0042 | protein stability index (Saccharomyces cerevisiae [1]; [4]): 0.319 ± 0.034 | protein stability index (Saccharomyces cerevisiae [1]; [5]): 0.233 ± 0.036 | protein stability index (Saccharomyces cerevisiae [1]; [6]): 0.41 ± 0.005 | protein stability index (Saccharomyces cerevisiae [1]; [7]): 0.162 ± 0.008 | protein stability index (Saccharomyces cerevisiae [1]; [8]): 0.177 ± 0.024 | protein stability index (Saccharomyces cerevisiae [1]; [9]): 0.303 ± 0.0089 | protein stability index (Saccharomyces cerevisiae [2]): 0.291 ± 0.0064

GVFLVWWVGFWV
protein stability index (Saccharomyces cerevisiae [1]; [3]): 0.257 ± 0.025 | protein stability index (Saccharomyces cerevisiae [1]; [4]): 0.401 ± 0.021 | protein stability index (Saccharomyces cerevisiae [1]; [5]): 0.25 ± 0.035 | protein stability index (Saccharomyces cerevisiae [1]; [6]): 0.431 ± 0.014 | protein stability index (Saccharomyces cerevisiae [1]; [7]): 0.223 ± 0.0082 | protein stability index (Saccharomyces cerevisiae [1]; [8]): 0.238 ± 0.029 | protein stability index (Saccharomyces cerevisiae [1]; [9]): 0.455 ± 0.047 | protein stability index (Saccharomyces cerevisiae [2]): 0.374 ± 0.057

GVLFHIVLHFMV
protein stability index (Saccharomyces cerevisiae [1]; [3]): 0.24 ± 0.045 | protein stability index (Saccharomyces cerevisiae [1]; [4]): 0.277 ± 0.01 | protein stability index (Saccharomyces cerevisiae [1]; [5]): 0.255 ± 0.028 | protein stability index (Saccharomyces cerevisiae [1]; [6]): 0.391 ± 0.0053 | protein stability index (Saccharomyces cerevisiae [1]; [7]): 0.199 ± 0.017 | protein stability index (Saccharomyces cerevisiae [1]; [8]): 0.194 ± 0.023 | protein stability index (Saccharomyces cerevisiae [1]; [9]): 0.305 ± 0.029 | protein stability index (Saccharomyces cerevisiae [2]): 0.27 ± 0.061

GVMSICRWMISV
protein stability index (Saccharomyces cerevisiae [1]; [3]): 0.415 ± 0.0094 | protein stability index (Saccharomyces cerevisiae [1]; [4]): 0.427 ± 0.012 | protein stability index (Saccharomyces cerevisiae [1]; [5]): 0.325 ± 0.042 | protein stability index (Saccharomyces cerevisiae [1]; [6]): 0.4914 ± 0.0034 | protein stability index (Saccharomyces cerevisiae [1]; [7]): 0.263 ± 0.013 | protein stability index (Saccharomyces cerevisiae [1]; [8]): 0.275 ± 0.035 | protein stability index (Saccharomyces cerevisiae [1]; [9]): 0.439 ± 0.017 | protein stability index (Saccharomyces cerevisiae [2]): 0.374 ± 0.014

GVQFRRPLIPIY
protein stability index (Saccharomyces cerevisiae [1]; [3]): 0.514 ± 0.0065 | protein stability index (Saccharomyces cerevisiae [1]; [4]): 0.4877 ± 0.0027 | protein stability index (Saccharomyces cerevisiae [1]; [5]): 0.358 ± 0.03 | protein stability index (Saccharomyces cerevisiae [1]; [6]): 0.5467 ± 0.0036 | protein stability index (Saccharomyces cerevisiae [1]; [7]): 0.325 ± 0.011 | protein stability index (Saccharomyces cerevisiae [1]; [8]): 0.35 ± 0.025 | protein stability index (Saccharomyces cerevisiae [1]; [9]): 0.517 ± 0.0099 | protein stability index (Saccharomyces cerevisiae [2]): 0.445 ± 0.082

GVVCVLGFALFV
protein stability index (Saccharomyces cerevisiae [1]; [3]): 0.403 ± 0.026 | protein stability index (Saccharomyces cerevisiae [1]; [4]): 0.507 ± 0.042 | protein stability index (Saccharomyces cerevisiae [1]; [5]): 0.293 ± 0.046 | protein stability index (Saccharomyces cerevisiae [1]; [6]): 0.495 ± 0.0051 | protein stability index (Saccharomyces cerevisiae [1]; [7]): 0.28 ± 0.014 | protein stability index (Saccharomyces cerevisiae [1]; [8]): 0.3 ± 0.028 | protein stability index (Saccharomyces cerevisiae [1]; [9]): 0.473 ± 0.0053 | protein stability index (Saccharomyces cerevisiae [2]): 0.413 ± 0.08

GWGVFFVMRIQV
protein stability index (Saccharomyces cerevisiae [1]; [3]): 0.1751 ± 0.00088 | protein stability index (Saccharomyces cerevisiae [1]; [4]): 0.259 ± 0.055 | protein stability index (Saccharomyces cerevisiae [1]; [5]): 0.225 ± 0.02 | protein stability index (Saccharomyces cerevisiae [1]; [6]): 0.367 ± 0.017 | protein stability index (Saccharomyces cerevisiae [1]; [7]): 0.197 ± 0.016 | protein stability index (Saccharomyces cerevisiae [1]; [8]): 0.198 ± 0.024 | protein stability index (Saccharomyces cerevisiae [1]; [9]): 0.301 ± 0.029 | protein stability index (Saccharomyces cerevisiae [2]): 0.34 ± 0.024

GWLVGLGLVFFT
protein stability index (Saccharomyces cerevisiae [1]; [3]): 0.586 ± 0.018 | protein stability index (Saccharomyces cerevisiae [1]; [4]): 0.664 ± 0.01 | protein stability index (Saccharomyces cerevisiae [1]; [5]): 0.513 ± 0.033 | protein stability index (Saccharomyces cerevisiae [1]; [6]): 0.661 ± 0.014 | protein stability index (Saccharomyces cerevisiae [1]; [7]): 0.488 ± 0.02 | protein stability index (Saccharomyces cerevisiae [1]; [8]): 0.499 ± 0.031 | protein stability index (Saccharomyces cerevisiae [1]; [9]): 0.618 ± 0.011 | protein stability index (Saccharomyces cerevisiae [2]): 0.514 ± 0.03

GWRRRIWLCRLQ
protein stability index (Saccharomyces cerevisiae [1]; [3]): 0.575 ± 0.018 | protein stability index (Saccharomyces cerevisiae [1]; [4]): 0.741 ± 0.038 | protein stability index (Saccharomyces cerevisiae [1]; [5]): 0.7 ± 0.013 | protein stability index (Saccharomyces cerevisiae [1]; [6]): 0.7939 ± 0.004 | protein stability index (Saccharomyces cerevisiae [1]; [7]): 0.41 ± 0.02 | protein stability index (Saccharomyces cerevisiae [1]; [8]): 0.412 ± 0.036 | protein stability index (Saccharomyces cerevisiae [1]; [9]): 0.662 ± 0.054 | protein stability index (Saccharomyces cerevisiae [2]): 0.505 ± 0.041

GYLFICSWCEGF
protein stability index (Saccharomyces cerevisiae [1]; [3]): 0.46 ± 0.059 | protein stability index (Saccharomyces cerevisiae [1]; [4]): 0.503 ± 0.01 | protein stability index (Saccharomyces cerevisiae [1]; [5]): 0.363 ± 0.023 | protein stability index (Saccharomyces cerevisiae [1]; [6]): 0.503 ± 0.029 | protein stability index (Saccharomyces cerevisiae [1]; [7]): 0.352 ± 0.028 | protein stability index (Saccharomyces cerevisiae [1]; [8]): 0.346 ± 0.018 | protein stability index (Saccharomyces cerevisiae [1]; [9]): 0.4849 ± 0.0034 | protein stability index (Saccharomyces cerevisiae [2]): 0.427 ± 0.048
